According to publication PMC10401710, “Cell Surface Labeling and Detection of Protein Tyrosine Kinase 7 via Covalent Aptamers”:

T1: PTK7-CFP (UniProt Q13308)
T1 sequence: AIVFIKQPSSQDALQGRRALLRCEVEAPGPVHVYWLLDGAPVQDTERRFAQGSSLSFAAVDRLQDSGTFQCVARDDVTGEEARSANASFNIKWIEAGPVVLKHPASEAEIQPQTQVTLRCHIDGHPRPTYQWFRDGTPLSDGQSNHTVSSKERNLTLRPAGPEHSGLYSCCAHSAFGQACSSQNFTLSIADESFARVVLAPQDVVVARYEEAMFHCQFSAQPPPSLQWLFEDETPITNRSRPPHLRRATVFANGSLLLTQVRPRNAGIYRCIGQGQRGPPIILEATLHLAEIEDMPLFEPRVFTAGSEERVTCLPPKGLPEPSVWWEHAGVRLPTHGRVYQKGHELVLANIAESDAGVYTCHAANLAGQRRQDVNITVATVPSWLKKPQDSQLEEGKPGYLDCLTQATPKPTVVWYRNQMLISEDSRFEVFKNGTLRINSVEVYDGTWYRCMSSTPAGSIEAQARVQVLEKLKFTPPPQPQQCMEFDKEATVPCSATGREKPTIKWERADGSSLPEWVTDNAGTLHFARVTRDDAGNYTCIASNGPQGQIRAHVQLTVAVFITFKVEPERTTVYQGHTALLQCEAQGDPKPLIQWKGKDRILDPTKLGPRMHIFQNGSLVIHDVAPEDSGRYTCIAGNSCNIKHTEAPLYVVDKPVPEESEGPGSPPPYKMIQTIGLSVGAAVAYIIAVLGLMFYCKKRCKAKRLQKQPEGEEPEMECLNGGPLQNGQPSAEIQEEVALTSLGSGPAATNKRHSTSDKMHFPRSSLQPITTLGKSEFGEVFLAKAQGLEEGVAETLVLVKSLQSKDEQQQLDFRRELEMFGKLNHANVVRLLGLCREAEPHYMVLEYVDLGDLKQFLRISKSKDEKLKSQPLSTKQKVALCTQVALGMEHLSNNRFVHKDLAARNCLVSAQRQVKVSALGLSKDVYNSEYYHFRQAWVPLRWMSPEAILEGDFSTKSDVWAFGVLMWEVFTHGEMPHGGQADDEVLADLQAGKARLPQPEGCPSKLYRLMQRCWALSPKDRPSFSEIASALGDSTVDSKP

T2: PTK7 (recombinant, R&D Biosystems NC2081082) (UniProt Q13308 31-703)
T2 sequence: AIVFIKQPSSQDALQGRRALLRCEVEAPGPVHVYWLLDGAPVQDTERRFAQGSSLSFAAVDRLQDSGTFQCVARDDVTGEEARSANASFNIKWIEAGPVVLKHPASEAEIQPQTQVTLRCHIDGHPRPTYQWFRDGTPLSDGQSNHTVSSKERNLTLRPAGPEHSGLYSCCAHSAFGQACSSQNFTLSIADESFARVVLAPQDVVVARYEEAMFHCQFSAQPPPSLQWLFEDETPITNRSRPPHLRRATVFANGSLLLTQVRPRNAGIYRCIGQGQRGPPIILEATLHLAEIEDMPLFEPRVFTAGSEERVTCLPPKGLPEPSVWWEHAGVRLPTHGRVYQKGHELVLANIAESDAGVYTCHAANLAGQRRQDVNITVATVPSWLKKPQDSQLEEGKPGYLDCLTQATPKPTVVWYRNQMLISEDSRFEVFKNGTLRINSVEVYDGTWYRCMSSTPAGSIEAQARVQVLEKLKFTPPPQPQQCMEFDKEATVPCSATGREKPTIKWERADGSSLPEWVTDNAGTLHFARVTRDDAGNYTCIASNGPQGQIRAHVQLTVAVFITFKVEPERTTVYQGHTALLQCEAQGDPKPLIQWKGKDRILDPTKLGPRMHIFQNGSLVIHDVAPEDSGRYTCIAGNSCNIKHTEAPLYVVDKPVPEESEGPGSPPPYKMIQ

B1: sgc8c(27)-1 (structured_DNA)
DNA: ATCTAACTGCTGCGCCGCCGGGAAAATACTGTACGGTTAGA
modifications: T27 replaced by 5-octadiynyl-dU, clicked to azide-tethered N-acyl sulfonamide biotin electrophile 1

How the values were obtained:
PTK7-CFP = target: T1, PTK7-CFP; test: covalent biotin transfer on cells, SA-HRP blot; conditions: EC50 of label transfer, not equilibrium Kd; transfected HEK293T, 1 h, 5 mM MgCl2; T27 replaced by 5-octadiynyl-dU, clicked to azide-tethered N-acyl sulfonamide biotin electrophile 1; DPBS with 5 mM MgCl2, 4.5 g/L glucose, pH 7.4, 37 C, 1 h (cells: plus 0.1 mg/mL yeast tRNA); read-out is proximity-driven covalent labeling, no equilibrium Kd …
[1] = target: T2, PTK7 (recombinant, R&D Biosystems …); test: covalent biotin transfer, SA-HRP blot; EC50 of label transfer, not equilibrium Kd; 100 nM PTK7, 1 h, 37 C, 5 mM MgCl2; DPBS with 5 mM MgCl2, 4.5 g/L glucose, pH 7.4, 37 C, 1 h (cells: plus 0.1 mg/mL yeast tRNA); read-out is proximity-driven covalent labeling, no equilibrium Kd measured; conditions: protein: commercial; label: transferable biotin; stem-loop (UNIFold prediction)

Row | Molecule | K half (PTK7-CFP) | apparent K (half saturation) [1]
1 | ATCTAACTGCTGCGCCGCCGGGAAAATACTGTACGGTTAGA [sgc8c(27)-1] | 251 nM | –
2 | B1 | – | 203 nM
